Experimental findings from patent publication US20210121565A1 (Eli Lilly, published 2021) are described below.

The EC50 is the concentration at which the effect is half-maximal. As usually defined, the koff is the rate constant with which the complex falls apart. By kon is commonly meant the second-order rate constant of association. A low value points to slow association.

For experiment [1], the target named is T1, aggregate tau fibrils purified from AD brain homogenates (MC1-affinity purified) (human, UniProt P10636-8 2-441, limits assumed).
T1 construct: Brain-derived material coated on ELISA plates at 0.7 ug/ml total tau; also called Purified AD Tau Fibrils; purified tau fibrils
T1 sequence (P10636 other isoform, or with tags, fused parts or gaps limits assumed): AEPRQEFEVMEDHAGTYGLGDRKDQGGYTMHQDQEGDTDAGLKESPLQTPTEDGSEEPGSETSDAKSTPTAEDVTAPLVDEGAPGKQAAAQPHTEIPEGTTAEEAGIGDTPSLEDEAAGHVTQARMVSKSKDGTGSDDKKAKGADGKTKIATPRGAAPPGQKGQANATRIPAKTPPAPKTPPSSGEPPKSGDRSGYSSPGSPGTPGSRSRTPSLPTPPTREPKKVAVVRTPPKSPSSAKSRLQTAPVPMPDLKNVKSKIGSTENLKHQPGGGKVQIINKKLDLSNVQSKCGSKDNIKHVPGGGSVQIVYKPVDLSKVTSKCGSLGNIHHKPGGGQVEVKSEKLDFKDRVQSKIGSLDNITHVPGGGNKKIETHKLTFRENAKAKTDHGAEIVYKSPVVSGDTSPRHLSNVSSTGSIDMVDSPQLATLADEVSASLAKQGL
Description: ELISA, purified AD tau fibrils coated on plate, anti-human IgG-HRP detection. As for the experimental part:
Enzyme-Linked Immunosorbant Assay (ELISA) is used to determine relative binding affinity of the exemplified anti-Tau antibody (having both HCs of SEQ ID NO.2 and both LCs of SEQ ID NO.1) to aggregate tau fibrils from AD brain homogenates. AD brain homogenates are prepared from approx. 80 g of cortex from brain of AD patients. Briefly, buffer (TBS/1 mM PMSF/1× Complete® protease inhibitor cocktail (Roche, p/n. 11 697 498 001) and phosphatase inhibitor (ThermoFischer, p/n. 78428)) is added to the AD brain tissue at about 10 ml/1 g (tissue). Tissue is homogenized using a handheld Kinematica Polytron at speed 6-7. Tissue is then further homogenized using Parr Bomb (Parr Instrument, p/n. 4653) at 1500 psi of nitrogen for 30 mins. Homogenate is spun at 28,000 g (J14 Beckman rotor) for 30 min at 4° C. Supernatant is collected, pooled and run over a 4 cm high guard column of Sepharose 400 Superflow to remove larger debris, then run over 25 ml MC1-Affigel 10 column at a flow rate of 50-60 ml per hour, in order to purify MC1-binding tau fibrils. To maximize the recovery of purification, supernatants are recycled through MC-1 column over 18-20 hours at 4° C. […] The concentration of tau within the tau fibrils purified from AD brain homogenate is measured by sandwich ELISA using DA-9 capture antibody and CP27 detection antibody. […]

In experiment [2] the target is T2, human monomeric (native or non-aggregate) tau (human, UniProt P10636 2-758).
T2 construct: No tag or expression host is stated; also called Monomeric Tau; monomeric tau
T2 sequence (P10636 other isoform, or with tags, fused parts or gaps limits assumed): as above
Description: SPR (Biacore 2000, 25 C), antibody captured on protein A, tau as analyte, steady state fit. As for the experimental part:
(§1) Surface Plasmon Resonance (SPR) assay, measured with a BIACORE® 2000 instrument (primed with HBS-EP+running buffer (GE Healthcare, 10 mM Hepes pH7.4+150 mM NaCl+3 mM EDTA+0.05% surfactant P20) at 25° C.), is used to measure binding of an exemplified anti-Tau antibody (having both HCs of SEQ ID NO.2 and both LCs of SEQ ID NO.1) to both human monomeric (e.g., native or non-aggregate) tau and human tau aggregates (both having the amino acid sequence as set forth in SEQ ID NO.13).
(§2) Except as noted, all reagents and materials are from BIACORE® AB (Upsala, Sweden). A CMS chip containing immobilized protein A (generated using standard NHS-EDC amine coupling) on all four flow cells (FC) is used to employ a capture methodology. Antibody samples are prepared at 0.5 μg/mL by dilution into running buffer. […]
(§3) Data of binding to tau aggregate is processed using standard double-referencing and fit to a 1:1 binding model using Biacore 2000 Evaluation software, version 4.1, to determine the association rate (kₒₙ, M⁻¹s⁻¹ units), dissociation rate (koff, s⁻¹ units), and Rₘₐₓ (RU units). The equilibrium dissociation constant (KD) was calculated from the relationship KD=koff/kₒₙ, and is in molar units. Data of binding to monomeric tau cannot be determined accurately by SPR as described above due to rapid on- and off-rates. […]

The target of experiment [3] is T3, human tau aggregates (amino acid sequence of SEQ ID NO.13) (human, UniProt P10636 2-758).
T3 construct: also called fibril tau; tau fibril aggregate
T3 sequence (P10636 other isoform, or with tags, fused parts or gaps limits assumed): as above
Description: SPR (Biacore 2000, 25 C), antibody captured on protein A, tau aggregate as analyte, 1:1 fit. As to the method: as §1, §2, §3
(In general: In SPR one partner is held on a chip, and binding of the other changes the refractive index at the surface.)

Experiment [4] addresses T3, human tau aggregates (amino acid …). Description: SPR (Biacore 2000, 25 C), antibody captured on protein A, tau aggregate as analyte, KD=koff/kon, not normalized for avidity. As to the method:
as §1, §2, §3

B1: Exemplified anti-Tau antibody (having both HCs of SEQ ID NO.2 and both LCs of SEQ ID NO.1) (antibody, human IgG4 S228P, kappa, F234A L235A, V domains shown)
VH: EVQLVQSGAEVKKPGESLKISCKGSGYTFSNYWIEWVRQMPGKGLEWMGEILPGSDSIKYEKNFKGQVTISADKSISTAYLQWSSLKASDTAMYYCARRGNYVDDWGQGTLVTVSS
VL: EIVLTQSPGTLSLSPGERATLSCRSSQSLVHSNQNTYLHWYQQKPGQAPRLLIYKVDNRFSGIPDRFSGSGSGTDFTLTISRLEPEDFAVYYCSQSTLVPLTFGGGTKVEIKR
notes: It was expressed in CHO cells; also called Exemplified anti-Tau mAb; exemplified tau monoclonal antibody
As for B1, in experiment [1], a half-maximal effect (EC50) was put at 0.0068 nM. Also, the Kd in experiment [2] is 235 nM; in experiment [4] it was < 0.22 nM. The koff in experiment [3] was < 1e-05 s⁻¹. In experiment [3], this molecule had a kon of 45900 M⁻¹ s⁻¹.
